Data published in publication PMC11526172.
Where two headings read alike, the source gives them in different places.

B1: dsDNA (145 bp 601, unmodified) (dsDNA)
DNA 1: ATCGATGTATATATCTGACACGTGCCTGGAGACTAGGGAGTAATCCCCTTGGCGGTTAAAACGCGGGGGACAGCGCGTACGTGCGTTTGAGCGGTGCTAGAGCTGTCTACGACCAATTGAGCGGCCTCGGCACCGGGATTCTGAT
DNA 2: ATCAGAATCCCGGTGCCGAGGCCGCTCAATTGGTCGTAGACAGCTCTAGCACCGCTCAAACGCACGTACGCGCTGTCCCCCGCGTTTTAACCGCCAAGGGGATTACTCCCTAGTCTCCAGGCACGTGTCAGATATATACATCGAT
B2: dsDNA-8-oxodGuo-73 (dsDNA)
DNA 1: B1 DNA 1
DNA 2: B1 DNA 2
modifications: 8-oxodGuo at G73 of strand 1
B3: dsDNA-8-oxodGuo-89 (dsDNA)
DNA 1: B1 DNA 1
DNA 2: B1 DNA 2
modifications: 8-oxodGuo at G89 of strand 1
B4: dsDNA-8-oxodGuo-137 (dsDNA)
DNA 1: B1 DNA 1
DNA 2: B1 DNA 2
modifications: 8-oxodGuo at G137 of strand 1

Legend:
[1] = molecular target: T1, hOGG1 K249Q (catalytically inactive) (Homo sapiens, UniProt O15527 1-345, K249Q); assay: EMSA
[2] = molecular target: T1, hOGG1 K249Q (catalytically inactive); assay: EMSA; remark: listed apart in the source

T1 sequence (O15527 whole entry K249Q): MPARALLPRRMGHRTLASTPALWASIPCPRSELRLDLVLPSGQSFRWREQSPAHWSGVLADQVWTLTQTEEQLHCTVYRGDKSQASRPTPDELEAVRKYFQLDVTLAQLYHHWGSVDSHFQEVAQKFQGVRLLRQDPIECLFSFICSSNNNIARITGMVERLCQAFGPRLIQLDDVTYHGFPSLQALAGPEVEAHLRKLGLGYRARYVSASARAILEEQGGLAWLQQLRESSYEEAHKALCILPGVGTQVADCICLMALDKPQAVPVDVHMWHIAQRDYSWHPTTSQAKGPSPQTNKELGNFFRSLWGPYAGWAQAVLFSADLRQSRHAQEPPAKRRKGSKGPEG

Row | Binder | Kd [1] [nM] | Kd [2] [nM]
1 | B1 | 1310 ± 200 | 
2 | B2 |  | 240 ± 10
3 | B3 |  | 300 ± 10
4 | B4 |  | 420 ± 20
